From the supplement of paper PMC7125110
± gives the standard error. This sample holds only a part of the variants without activity.

B1: glmS ribozyme (parent)
chain: AUAAAAGCGCCAGAACUACAGAAAUGUAGUUGACGAGGAGGAGGUUUAUCGAAUUUUCGGCGGAUGCCUCCAAA

What was measured:
Conditions in all cases: with glucosamine-6-phosphate
glucosamine-6-phosphate [1] = variants of: B1; experiment: self-cleavage kobs at 640 uM GlcN6P; higher = faster cleavage; RNA array
Outline: (§1)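 Barcoded ribozyme variants on sequenced MiSeq chips were transcribed in situ by E. coli RNA polymerase and followed at 37 °C through a hybridised Cy3 probe. Glucosamine-6-phosphate at 40 μM to 10 mM in HEPES/KCl/Mg(OAc)2 buffer was flowed in, and tiles were imaged over ~14 h. Signals were normalised to baseline and to non-cleaving reference variants, and per-tile medians were fit to one- or two-exponential decays to give kobs. Weighted Michaelis–Menten fits across concentrations gave kcat and KM.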

glucosamine-6-phosphate [2] = variants of: B1; experiment: self-cleavage kobs at 2500 uM GlcN6P; higher = faster cleavage; RNA array
Outline: as §1

glucosamine-6-phosphate [3] = variants of: B1; experiment: self-cleavage kobs at 10000 uM GlcN6P; higher = faster cleavage; RNA array
Outline: as §1

Variant | self-cleavage kobs at 640 uM GlcN6P (glucosamine-6-phosphate [1]) | self-cleavage kobs at 2500 uM GlcN6P (glucosamine-6-phosphate [2]) | self-cleavage kobs at 10000 uM GlcN6P (glucosamine-6-phosphate [3])
G41U G44U U45C | < 1e-05 s⁻¹ | < 1e-05 s⁻¹ | –
U30G C34A U47A | < 1e-05 s⁻¹ | – | –
G13U C50A A64U U65G | < 1e-05 s⁻¹ | < 1e-05 s⁻¹ | –
C8U G35A G60C U65G | < 1e-05 s⁻¹ | – | –
G9U A12G A14C A53C | < 1e-05 s⁻¹ | < 1e-05 s⁻¹ | –
A14U C16A G66A | 3.92e-05 ± 1.7e-05 s⁻¹ | 0.000107 ± 2.6e-05 s⁻¹ | –
G29U A53C | 0.00015 ± 7.4e-05 s⁻¹ | 0.00118 ± 0.00032 s⁻¹ | 0.000874 ± 0.00028 s⁻¹
A42C G43C C70U | < 1e-05 s⁻¹ | – | –
A39C G60U G66U | < 1e-05 s⁻¹ | < 1e-05 s⁻¹ | –
G7U C70A | 0.000596 ± 0.00023 s⁻¹ | – | –
C11A G37C G62A | < 1e-05 s⁻¹ | – | –
C8G A14C G63A | < 1e-05 s⁻¹ | < 1e-05 s⁻¹ | –
C10U G38C G40A U55G | < 1e-05 s⁻¹ | < 1e-05 s⁻¹ | < 1e-05 s⁻¹
C8A A36C C68U | < 1e-05 s⁻¹ | – | –
G9U G40A C61G | < 1e-05 s⁻¹ | – | –
U46G C50A C67G | 0.000631 ± 0.00012 s⁻¹ | 0.000506 ± 0.00017 s⁻¹ | –
G43U U47C G66U | < 1e-05 s⁻¹ | – | –
C8U A12U G37U C61A A64U C67G | 0.000544 ± 0.00022 s⁻¹ | – | –
G7U G13U A15U C50A G51A G60U C67A C71A | 0.000375 ± 0.00012 s⁻¹ | – | –
G9C G37C C70G | < 1e-05 s⁻¹ | < 1e-05 s⁻¹ | –
A14G U30A A36U C58U G66U | < 1e-05 s⁻¹ | – | –
G9C C34U U49C U65G | < 1e-05 s⁻¹ | – | –
G32A A36G A39C G41U G43U | < 1e-05 s⁻¹ | – | –

Variant | self-cleavage kobs at 640 uM GlcN6P (glucosamine-6-phosphate [1]) | self-cleavage kobs at 2500 uM GlcN6P (glucosamine-6-phosphate [2]) | self-cleavage kobs at 10000 uM GlcN6P (glucosamine-6-phosphate [3])
C10G A14G A36C G62U | < 1e-05 s⁻¹ | – | –
A15G A48U U54A | 0.000159 ± 3.2e-05 s⁻¹ | 0.000106 ± 4.2e-05 s⁻¹ | –
G7U U45A A53G U56G | < 1e-05 s⁻¹ | – | –
A12U C67U C71G | 7.19e-05 ± 2.7e-05 s⁻¹ | 6.07e-05 ± 1.3e-05 s⁻¹ | 4.02e-05 ± 2e-05 s⁻¹
A6G G9A A33C A39U G41U A53U | < 1e-05 s⁻¹ | – | –
U46G A53U G63C C67G | < 1e-05 s⁻¹ | – | –
A14G G29A G32U | 0.000272 ± 0.0001 s⁻¹ | 0.000568 ± 0.00014 s⁻¹ | –
G7U A53U A64G | < 1e-05 s⁻¹ | < 1e-05 s⁻¹ | –
A39G G60A U69G | < 1e-05 s⁻¹ | – | –
A12U A33C G41U G62C | < 1e-05 s⁻¹ | < 1e-05 s⁻¹ | –
G32A U57A C70G | 0.000649 ± 0.00023 s⁻¹ | – | –
U31C G41A G63C C68A | < 1e-05 s⁻¹ | – | –
C16U U31C G32C G44A U49G C61G U65A | < 1e-05 s⁻¹ | < 1e-05 s⁻¹ | –
G35C G40C G60C | < 1e-05 s⁻¹ | – | –
C11G A42U G63U | < 1e-05 s⁻¹ | – | –
U31C G32A U65G | 5.75e-05 ± 1.9e-05 s⁻¹ | 0.000133 ± 3.3e-05 s⁻¹ | –
A6G G40A U54G C67A | < 1e-05 s⁻¹ | < 1e-05 s⁻¹ | –
A14U A15U G29C C67U C70G | 0.00266 ± 0.001 s⁻¹ | – | –
A6U C11G A14C G41U | < 1e-05 s⁻¹ | < 1e-05 s⁻¹ | –
G32C G40C U57G | < 1e-05 s⁻¹ | – | –
G37A G41C C50U U65G | < 1e-05 s⁻¹ | < 1e-05 s⁻¹ | –
G29U A53C G62C | < 1e-05 s⁻¹ | – | –
A14U A15C A33C C61G U65G | < 1e-05 s⁻¹ | < 1e-05 s⁻¹ | –

Variant | self-cleavage kobs at 640 uM GlcN6P (glucosamine-6-phosphate [1]) | self-cleavage kobs at 2500 uM GlcN6P (glucosamine-6-phosphate [2]) | self-cleavage kobs at 10000 uM GlcN6P (glucosamine-6-phosphate [3])
C8G C10A G38U A52G | < 1e-05 s⁻¹ | < 1e-05 s⁻¹ | –
G7A G37C A39U U47G | < 1e-05 s⁻¹ | – | –
G9U U55C G62U | < 1e-05 s⁻¹ | – | –
G41C U46G U54C C70G | 0.00305 ± 0.00089 s⁻¹ | 0.00908 ± 0.0027 s⁻¹ | –
A15C G32A G38U | < 1e-05 s⁻¹ | – | –
C8U G13U U47C G51C | < 1e-05 s⁻¹ | – | –
G13U G29U A39G | 0.000115 ± 2.8e-05 s⁻¹ | 7.21e-05 ± 2.3e-05 s⁻¹ | –
G41U U47G C50G | < 1e-05 s⁻¹ | – | –
G13U A14U A48U | < 1e-05 s⁻¹ | < 1e-05 s⁻¹ | –
C16U A33G C50U U54G | < 1e-05 s⁻¹ | < 1e-05 s⁻¹ | < 1e-05 s⁻¹
C8U G13A U46A G51C G59A | < 1e-05 s⁻¹ | – | –
A15C A48U U49G G62U | < 1e-05 s⁻¹ | – | –
G32U A33U U45A | < 1e-05 s⁻¹ | – | –
G29A U30G A52G | 7.23e-05 ± 1.9e-05 s⁻¹ | 0.000399 ± 9.4e-05 s⁻¹ | –
C11U U56A C70G | 0.000217 ± 5.8e-05 s⁻¹ | 0.000145 ± 3e-05 s⁻¹ | –
G7C C58G | < 1e-05 s⁻¹ | – | –
C34U G43C | < 1e-05 s⁻¹ | – | –
A6G U49A | < 1e-05 s⁻¹ | – | < 1e-05 s⁻¹
G9C U65A C68G | 0.000522 ± 0.00017 s⁻¹ | – | 6.3e-05 ± 2.2e-05 s⁻¹
A33U G40U A52U U57G | < 1e-05 s⁻¹ | < 1e-05 s⁻¹ | –
G9A C10G G29U G62A | < 1e-05 s⁻¹ | – | –
